Results published in patent US20090304746A1.
Like-named read-outs stand apart in the source and are kept apart here.

What was measured:
[1] = target: HLA-A*3301 (human)
[2] = target: HLA-A*3101 (human); experiment: competition with 125I-labelled standard peptide on purified HLA, gel filtration
[3] = target: HLA-A*6801 (human); experiment: as above
[4] = target: HLA-A*0301 (human); experiment: as above
[5] = target: HLA-A*3101 (human); experiment: competition with 125I-labeled standard peptide on purified HLA, gel filtration
[6] = target: HLA-A*6801 (human); experiment: as above
[7] = target: HLA-A*0301 (human); experiment: as above
[8] = target: HLA-A*1101 (human); experiment: as above
[9] = target: HLA-A*3301 (human); experiment: as above
[10] = target: HLA-A*2401 (human); experiment: competition with 125I-labelled standard peptide for purified HLA, gel filtration
[11] = target: HLA-A*1101 (human)

With PTGSGKSTK (modifications not checked) [HCV peptide … (polyprotein position 1236)] as the binder, how does the binding affinity ratio (IC50 of standard peptide / IC50 of test peptide) [1] read?
Its binding affinity ratio (IC50 of standard peptide / IC50 of test peptide) is 0.0006.

And the binding affinity ratio (IC50 of standard peptide / IC50 of test peptide) [2]?
Its binding affinity ratio (IC50 of standard peptide / IC50 of test peptide) is 0.0008.

What about the binding affinity ratio (IC50 of standard peptide / IC50 of test peptide) [3] of the same binder?
The binding affinity ratio (IC50 of standard peptide / IC50 of test peptide) was 0.0002.

And the binding affinity ratio (IC50 of standard peptide / IC50 of test peptide) [4]?
Its binding affinity ratio (IC50 of standard peptide / IC50 of test peptide) is 0.0002.

What does the source list for VAYQATVCAR (modifications not checked) [HCV peptide … (HCV polyprotein position 1592)]?
binding affinity ratio (IC50 of standard peptide / IC50 of test peptide) [5]: 0.068; binding affinity ratio (IC50 of standard peptide / IC50 of test peptide) [6]: 0.028; binding affinity ratio (IC50 of standard peptide / IC50 of test peptide) [7]: 0.0005; binding affinity ratio (IC50 of standard peptide / IC50 of test peptide) [8]: 0.0036; binding affinity ratio (IC50 of standard peptide / IC50 of test peptide) [9]: 0.072

With NIVDVQYLY (modifications not checked) as the binder, how does the binding affinity ratio (IC50 of standard peptide / IC50 of test peptide) [10] read?
The binding affinity ratio (IC50 of standard peptide / IC50 of test peptide) was 0.0001.

Which binding affinity ratio (IC50 of standard peptide / IC50 of test peptide) [11] does the source give for LSNSLLRHH (modifications not checked) here?
The binding affinity ratio (IC50 of standard peptide / IC50 of test peptide) was 0.0001.
